According to US20040081655A1, “Methods and compositions comprising polycationic compounds” (priority 2001, published 2004):
No end group written: not given here.

Assays:
[1] = Depot formation at the injection site, fluorescence-labelled compounds, photos (Example 2a); set-up: species or system Mice C57Bl/6; conditions: mouse, in vivo, sc
Protocol: On day 0 mice were injected subcutaneously into the right flank with a total volume of 100 μl containing the above mentioned compounds. Animals were sacrificed at the indicated time points after injection and photos were taken from the injection sites (FIG. 2a).

[2] = FACS analyses of lymphoid and non-lymphoid tissues for CpG-ODN-Cy5 (Example 2b); set-up: species or system Mice C57B1/6; conditions: mouse, in vivo, sc
Protocol: Mice were injected subcutaneously into the right flank with a total volume of 100 μl containing the above mentioned compounds. One day after injection, mice were sacrificed and FACS-analyses were performed from secondary lymphoid organs (draining lymph node, spleen) as well as non-lymphoid tissues (lung, liver, kidney, heart) (FIG. 2b).

[3] = Depot formation at the injection site at day 4, labelled TRP-2 peptide/pR60/CpG-ODN (Example 3); format: in vivo, Mice C57Bl/6; conditions: injected either alone or in combination with CpG-ODN-Cy5
Protocol: On day 0 mice were injected subcutaneously into the right flank with a total volume of […] containing the above mentioned compounds. Animals were sacrificed at day 4 after injection and photos were taken from the injection sites (FIG. 3).

Substance | distribution of CpG-ODN-Cy5 after injection [1] | CpG-ODN-Cy5 in secondary lymphoid organs and non-lymphoid tissues (FACS) [2] | presence of the labelled peptide at the injection site [3]
CpG-ODN-Cy5: phosphothioate-modified, Cy5-labeled oligodinucleotides containing a CpG motif: tcc atg acg ttc ctg atg ct (DNA TCCATGACGTTCCTGATGCT; DNA, all phosphorothioate, methylation of C not given here; Cy5 label) | distribution of CpG-ODN-Cy5 all over the skin | detectable in secondary lymphoid organs (draining lymph node, spleen) and non-lymphoid tissues (lung, liver, kidney, heart) | 
TRP-2181-188-peptide-FITC: FITC-labeled TRP-2-Peptide (VYDFFVWL), MHC class I (H-2 Kb) restricted epitope of mouse tyrosinase related protein-2 (also: FITC label, site not given here) |  |  | not detectable at the injection site at day 4
